Tested on: K4 kissing-loop RNA reporter
Assay: apparent KD of K4 kissing-loop reporter; higher = weaker reporter binding
Details: Eterna round: R107
Method: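 RNA-MaP round R107: designed RNA switches with theophylline, tryptophan, arginine or FMN aptamers are transcribed on-chip within common flanks. They are titrated with a labelled K4 kissing-loop RNA reporter in RNA-MaP buffer (100 mM Tris pH 7.5, 80 mM KCl, 4 mM MgCl2), without ligand or with the indicated ligand. Median apparent KD per design.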

[1] = input ligand: theophylline 20 uM
[2] = input ligand: tryptophan 2.4 mM
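Also: bound reporter read as fluorescence of individual clusters on recovered sequencing chips by microscopy, with normalized cluster intensities fitted with a binding model.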

Sequence	apparent KD of K4 kissing-loop reporter (input ligand: FMN 200 uM)	apparent KD of K4 kissing-loop reporter (input ligand: arginine 13.2 mM)	apparent KD of K4 kissing-loop reporter (input ligand: none)	apparent KD of K4 kissing-loop reporter [1]	apparent KD of K4 kissing-loop reporter [2]
GGAUAGGACAGAGGAUAUGGUAGUGAUGUUACCAAACUGGUUAUUAAUGUCAGAAAACUGGCAAAUCCAGAAGGCUGUCCUAUCG [KL-XFMN-B13]	0.18 µM	0.0638 µM	0.0757 µM	0.0605 µM	0.0629 µM
AGCAAUAUCACGGCCGCCACUGAUUAUUGUUUUUAUAGUUAUAAAUCUUGCCAGUGAUGUUGGUUCAGGACCGGGUGAGUUAAUA [JR_SSTryptoB_Sub002]	0.498 µM	0.565 µM	0.727 µM	0.62 µM	0.373 µM
CCUAUCUCAUACGAUACCAGUCAACGAGUGAUGUUCGAAUAAAUAAAUUUGCCAUAUAAUGACCCUUGGCAGCGUAUGGGAUAGG [Ex Theophylline B K4 14]	0.352 µM	0.373 µM	0.337 µM	0.431 µM	0.334 µM
UGGAGUUGACGAAAAGUCAACUCCCGAGAAGGAGCGGACGAAAGUCCAGGUAGGUCGCUCACUACCAGUGAUGUUGGUACUUAAA	0.138 µM	0.22 µM	0.181 µM	0.213 µM	0.138 µM
AGACUACCACACUGUCAAUAGACAGUGUACUAGGAUAUGCUGAUAAGCAGAAGGAGUGAUGUUCCAAGGUAGUCAAUAAAAUAAU [FmnAX 13 U28+A66]	0.393 µM	0.213 µM	0.206 µM	0.291 µM	0.206 µM
GCGCGUCAUGUCAGCGGUGACACUGUCGAUACCAGCGCCGUAAGGCGCCCUUGGCAGCGACGUGCUGGAGUGAUGUUCCAGCGUC [#2 Exclusion - Theophylline A Attempt #20 (HarryS)]	0.178 µM	0.11 µM	0.149 µM	0.126 µM	0.141 µM
CGACUAGUCUUGCAACCCUAGUCGAUAGACUAGGAUAUCAGGAAACUGAGAAGGAGUCUACUUGCAGUGAUGUUGCAAGAAUAAU [[F]''-[K]'-[F]'-[F1]-[F2]-[K1]-[K2]_Design6]	0.163 µM	0.176 µM	0.17 µM	0.168 µM	0.156 µM
GCCUAGGCUCGAAAGAGCCUAGGCUGGGCUCAGGAUAUCCGGAAACGGAGAAGGGAGGGACUAGUGAUGUUAGGGAUUCCCUAUG	0.461 µM	0.264 µM	0.29 µM	0.251 µM	0.203 µM
AAACAACGUGACGAUACCAGCUUACUCGGCAAGCCAGUGAUGUUGGUGAAAAGGAGUCAAAGCCCUUGGCAGCGUCGAAGGUUUG [Leteon]	0.31 µM	0.268 µM	0.334 µM	0.138 µM	0.268 µM

— the supplement of paper PMC9170038
